Experimental data reported in US20110135573A1 (DYAX, published 2011).

Legend:
h-MMP-9/h-TIMP-1 complex [1] = molecular target: T1, h-MMP-9/h-TIMP-1 complex (human, UniProt P14780 107-457; P01033 24-207, limits assumed); experiment: SPR (Biacore 3000), antibody captured via anti-Fc
T1 construct: Preformed non-covalent complex flowed over the antibody surfaces; also called huTIMP-1/cat-huMMP-9; h-TIMP-1/h-MMP-9 complex
Method: (§1) Experiments were performed at 25° C. with the help of a Biacore 3000 instrument. The MMP-9 binding protein (M0166F10) and the M0237-D02 antibody were coated to a CM5 chip either via standard amine coupling or using an anti-Fc antibody surface. Then either the active, human MMP-9 catalytic domain (BIOMOL, SE-244), the human pro-MMP-9 (R&D, 911-MP), the human TIMP-1 (R&D, 970-TM) or a h-MMP-9/h-TIMP-1 complex were flowed over the antibody surfaces, and binding was recorded.
(§2) It was shown that the human MMP-9 catalytic domain binds to M0166-F10, whether this antibody is directly captured via amine coupling or captured with an anti-Fc antibody surface.

[2] = molecular target: T2, Mouse MMP-9 (R&D, 909-MM), APMA-activated (mouse, UniProt P41245 108-730, limits assumed); experiment: Ki,app, enzyme inhibition assay (fluorogenic peptide substrate), IgG; told as Ki of 1.3±0.1 nM in Example 2
T2 construct: also called mMMP-9; mouse MMP-9 (R&D Systems #909-MM-010)
Method: (§3) Materials: [0495] Substrate: Mca-KPLGL-Dap(Dnp)-AR-NH₂ (M-2350) from BACHEM (521575). A 10 mM stock solution was prepared in DMSO. [0496] Enzymes: [0497] Human MMP-9 catalytic domain (BIOMOL, SE-244). Enzyme concentration was measured by titration with TIMP-1 (2522-104) [0498] Mouse MMP-9 (R&D, 909-MM), APMA-activated. [0499] M0237-D02 hIgG1: 2517-014. Dialysed against TCN. [0500] TCNB: 50 mM Tris/HCl, 10 mM CaCl₂, 150 mM NaC, […] Brij 35, pH 7.5. [0501] -96-well black plates from Perkin Elmer (6005270) [0502] Spectramax M2e to measure fluorescence emission of the substrate upon hydrolysis (temperature control set at 30° C.; λexc=328 nm and λₑₘ=393 nm)
(§4) The enzyme (final concentration=0.23 and 0.17 nM for the human and mouse MMP-9, respectively) was preincubated with various concentrations (0-50 nM) of M0237-D02 for 1 h at 30° C. The substrate was then added to a final concentration ranging from 5 to 40 μM and initial rates were recorded.

[3] = molecular target: T3, Human MMP-9 catalytic domain (BIOMOL, SE-244) (human, UniProt P14780 107-457, limits assumed); experiment: Ki,app, enzyme inhibition assay (fluorogenic peptide substrate), IgG; told as Ki of 0.92±0.04 nM in Example 2
T3 construct: domain: catalytic domain; also called Cat-huMMP-9; cat-huMMP-9
Method: as §3, §4

[4] = molecular target: T4, human MMP-2 (Biomol #SE-237) (human, UniProt P08253 110-452, limits assumed); experiment: Ki,app, enzyme inhibition assay (fluorogenic peptide substrate), IgG
T4 construct: also called hMMP-2

[5] = molecular target: T3, Human MMP-9 catalytic domain (BIOMOL, …); experiment: plot of kobs against antibody concentration, inhibition progress curves
[6] = molecular target: T4, human MMP-2 (Biomol #SE-237); experiment: Ki,app, enzyme inhibition assay (fluorogenic peptide substrate), medium-scale sFab
[7] = molecular target: T2, Mouse MMP-9 (R&D, 909-MM), …; experiment: as above
[8] = molecular target: T3, Human MMP-9 catalytic domain (BIOMOL, …); experiment: as above
[9] = molecular target: T5, MMP-26 (Dyax prep #020209) (UniProt Q9NRE1 90-261, limits assumed); experiment: cell-based or functional assay
T5 sequence (looked up): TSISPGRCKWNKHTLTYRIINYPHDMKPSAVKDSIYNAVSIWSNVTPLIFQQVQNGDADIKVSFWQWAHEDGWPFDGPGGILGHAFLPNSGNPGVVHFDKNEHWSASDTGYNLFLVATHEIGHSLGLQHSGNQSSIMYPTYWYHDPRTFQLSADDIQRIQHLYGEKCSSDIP

MMP-1 (Biomol SE-180) = molecular target: T6, MMP-1 (Biomol SE-180) (UniProt P03956 100-269, limits assumed); experiment: cell-based or functional assay
T6 sequence (looked up): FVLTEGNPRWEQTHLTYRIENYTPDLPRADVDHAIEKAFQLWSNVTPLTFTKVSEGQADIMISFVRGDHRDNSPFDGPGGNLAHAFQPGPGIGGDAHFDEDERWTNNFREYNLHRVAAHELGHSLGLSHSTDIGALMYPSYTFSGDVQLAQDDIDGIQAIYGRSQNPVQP

[10] = molecular target: MMP-3 (R&D Systems #513-MP) (UniProt P08254 18-477, limits assumed); experiment: cell-based or functional assay
MMP-7 (Biomol SE-181) = molecular target: T7, MMP-7 (Biomol SE-181) (UniProt P09237 95-267); experiment: cell-based or functional assay
T7 sequence (looked up): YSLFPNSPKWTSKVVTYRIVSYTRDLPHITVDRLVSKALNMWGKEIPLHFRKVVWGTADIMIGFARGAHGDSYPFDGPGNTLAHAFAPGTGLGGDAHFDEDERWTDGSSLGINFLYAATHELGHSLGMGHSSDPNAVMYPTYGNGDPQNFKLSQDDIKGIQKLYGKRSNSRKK

TACE (R&D Systems) = TACE (R&D Systems) (UniProt P78536 215-671, limits assumed); experiment: cell-based or functional assay
MMP-14 (Biomol SE-259) = MMP-14 (Biomol SE-259) (UniProt P50281 112-284, limits assumed); experiment: cell-based or functional assay
MMP-10 (Biomol SE-329) = MMP-10 (Biomol SE-329) (UniProt P09238 99-265, limits assumed); experiment: cell-based or functional assay
MMP-13 (Biomol SE-246) = MMP-13 (Biomol SE-246) (UniProt P45452 104-274); experiment: cell-based or functional assay
[11] = molecular target: MMP-16 (Calbiochem #475939) (UniProt P51512 120-292, limits assumed); experiment: cell-based or functional assay
[12] = molecular target: MMP-15 (Calbiochem #475938) (UniProt P51511 132-304, limits assumed); experiment: cell-based or functional assay
MMP-8 (Biomol SE-255) = MMP-8 (Biomol SE-255) (UniProt P22894 100-262, limits assumed); experiment: cell-based or functional assay
MMP-12 (Biomol SE-138) = MMP-12 (Biomol SE-138) (UniProt P39900 106-263, limits assumed); experiment: cell-based or functional assay
[13] = molecular target: T3, Human MMP-9 catalytic domain (BIOMOL, …); experiment: Ki,app, enzyme inhibition assay (fluorogenic peptide substrate), small-scale sFab
MMP-9 (PMA-activated) = MMP-9 (PMA-activated) (Homo sapiens (Human), UniProt P14780 107-707, Biotinylated for the phage selection; the biotin sites are not stated and the letters do not carry them.); experiment: apparent KD; method not stated
h-MMP-9/h-TIMP-1 complex [14] = molecular target: T1, h-MMP-9/h-TIMP-1 complex; experiment: SPR (Biacore 3000), antibody amine-coupled (direct capture)
Method: as §1, §2

[15] = molecular target: T8, human pro-MMP-9 (R&D, 911-MP) (human, UniProt P14780 20-707); experiment: as above
T8 construct: Pro-enzyme; also called Pro-huMMP-9
Method: as §1, §2

[16] = molecular target: T9, human TIMP-1 (R&D, 970-TM) (human, UniProt P01033 24-207); experiment: as above
T9 construct: also called huTIMP-1; h-TIMP-1
Method: as §1, §2

T3 sequence (P14780 107-457 limits assumed): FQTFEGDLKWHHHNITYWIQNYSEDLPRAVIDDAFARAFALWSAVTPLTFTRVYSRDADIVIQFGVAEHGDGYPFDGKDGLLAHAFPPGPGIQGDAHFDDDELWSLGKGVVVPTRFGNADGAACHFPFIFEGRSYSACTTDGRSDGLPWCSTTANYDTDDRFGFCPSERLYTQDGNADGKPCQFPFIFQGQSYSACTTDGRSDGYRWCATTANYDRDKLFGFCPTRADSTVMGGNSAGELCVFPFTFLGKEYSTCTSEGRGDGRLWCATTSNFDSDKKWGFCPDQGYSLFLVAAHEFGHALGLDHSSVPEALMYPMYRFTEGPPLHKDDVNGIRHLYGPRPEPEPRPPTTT
MMP-9 (PMA-activated), sequence (P14780 107-707 limits assumed, form in doubt): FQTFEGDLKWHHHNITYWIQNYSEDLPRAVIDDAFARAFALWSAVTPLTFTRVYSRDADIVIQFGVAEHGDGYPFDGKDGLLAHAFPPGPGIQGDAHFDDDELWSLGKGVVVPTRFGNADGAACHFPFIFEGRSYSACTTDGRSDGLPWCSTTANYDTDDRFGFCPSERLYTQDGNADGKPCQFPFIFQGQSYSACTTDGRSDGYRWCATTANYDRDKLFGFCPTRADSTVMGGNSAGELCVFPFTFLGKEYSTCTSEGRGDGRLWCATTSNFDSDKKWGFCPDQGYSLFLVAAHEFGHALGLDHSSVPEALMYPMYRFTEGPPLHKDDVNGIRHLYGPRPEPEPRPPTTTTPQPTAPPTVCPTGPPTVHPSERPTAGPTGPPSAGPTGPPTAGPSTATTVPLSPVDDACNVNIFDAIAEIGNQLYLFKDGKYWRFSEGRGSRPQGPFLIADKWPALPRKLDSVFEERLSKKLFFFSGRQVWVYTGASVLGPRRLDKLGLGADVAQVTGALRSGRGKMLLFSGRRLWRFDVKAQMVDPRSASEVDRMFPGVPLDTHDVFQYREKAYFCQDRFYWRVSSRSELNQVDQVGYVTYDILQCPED
T2 sequence (P41245 108-730 limits assumed): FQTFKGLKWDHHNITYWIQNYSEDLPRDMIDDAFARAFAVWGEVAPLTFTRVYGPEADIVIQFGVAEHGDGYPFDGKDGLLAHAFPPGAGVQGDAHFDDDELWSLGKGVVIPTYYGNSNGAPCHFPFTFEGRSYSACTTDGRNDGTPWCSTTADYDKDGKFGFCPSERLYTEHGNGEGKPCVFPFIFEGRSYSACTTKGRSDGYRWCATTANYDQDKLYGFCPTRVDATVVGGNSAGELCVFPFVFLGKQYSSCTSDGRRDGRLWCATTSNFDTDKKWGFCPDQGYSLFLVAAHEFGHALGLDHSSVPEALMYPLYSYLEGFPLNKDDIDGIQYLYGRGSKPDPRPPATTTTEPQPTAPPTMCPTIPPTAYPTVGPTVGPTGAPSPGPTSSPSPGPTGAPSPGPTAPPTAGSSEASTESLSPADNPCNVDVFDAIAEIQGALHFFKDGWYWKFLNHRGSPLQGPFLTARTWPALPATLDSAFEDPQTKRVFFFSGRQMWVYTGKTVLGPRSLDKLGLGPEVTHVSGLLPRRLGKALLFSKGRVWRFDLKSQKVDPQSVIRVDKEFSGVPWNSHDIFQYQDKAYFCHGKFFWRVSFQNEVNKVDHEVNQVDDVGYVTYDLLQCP
T1 sequence (P14780 107-457 limits assumed, chain 1 of 2): as the sequence (P14780 107-457 limits assumed) above
T1 sequence (P01033 24-207 limits assumed, chain 2 of 2): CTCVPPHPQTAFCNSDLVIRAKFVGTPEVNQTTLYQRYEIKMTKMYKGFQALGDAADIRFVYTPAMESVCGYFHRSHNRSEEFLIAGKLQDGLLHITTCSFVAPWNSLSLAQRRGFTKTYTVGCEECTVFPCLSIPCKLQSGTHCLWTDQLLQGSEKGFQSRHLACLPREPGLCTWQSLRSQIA
T4 sequence (P08253 110-452 limits assumed): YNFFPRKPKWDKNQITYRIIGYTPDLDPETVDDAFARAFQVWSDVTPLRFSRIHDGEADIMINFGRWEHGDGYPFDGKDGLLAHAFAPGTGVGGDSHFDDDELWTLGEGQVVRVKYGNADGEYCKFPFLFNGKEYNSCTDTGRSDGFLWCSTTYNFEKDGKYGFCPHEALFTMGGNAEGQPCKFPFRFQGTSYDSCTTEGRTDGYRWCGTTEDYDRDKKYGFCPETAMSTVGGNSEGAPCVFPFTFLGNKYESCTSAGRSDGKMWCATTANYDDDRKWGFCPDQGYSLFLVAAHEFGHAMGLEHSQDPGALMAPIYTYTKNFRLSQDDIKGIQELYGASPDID
T8 sequence (P14780 20-707): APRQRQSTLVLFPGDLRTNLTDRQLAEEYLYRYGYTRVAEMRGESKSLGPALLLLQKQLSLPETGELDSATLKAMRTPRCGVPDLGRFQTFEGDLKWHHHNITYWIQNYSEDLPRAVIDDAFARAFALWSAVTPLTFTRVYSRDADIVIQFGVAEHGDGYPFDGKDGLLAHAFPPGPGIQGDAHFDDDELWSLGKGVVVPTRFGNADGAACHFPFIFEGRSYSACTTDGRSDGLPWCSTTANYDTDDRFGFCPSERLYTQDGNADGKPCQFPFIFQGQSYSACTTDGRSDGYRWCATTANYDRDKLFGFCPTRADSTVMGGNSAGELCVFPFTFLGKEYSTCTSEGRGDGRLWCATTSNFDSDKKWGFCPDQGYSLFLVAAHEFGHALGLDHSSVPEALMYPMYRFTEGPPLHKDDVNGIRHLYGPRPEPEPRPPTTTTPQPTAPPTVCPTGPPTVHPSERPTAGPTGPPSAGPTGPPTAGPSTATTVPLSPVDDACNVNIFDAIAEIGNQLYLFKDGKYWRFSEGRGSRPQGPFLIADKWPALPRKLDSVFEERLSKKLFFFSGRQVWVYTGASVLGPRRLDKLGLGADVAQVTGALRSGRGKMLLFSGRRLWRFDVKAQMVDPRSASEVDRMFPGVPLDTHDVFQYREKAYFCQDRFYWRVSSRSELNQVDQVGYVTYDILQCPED
T9 sequence (P01033 24-207 limits assumed): as the sequence (P01033 24-207 limits assumed, chain 2 of 2) above
MMP-16 (Calbiochem #475939), sequence (P51512 120-292 limits assumed): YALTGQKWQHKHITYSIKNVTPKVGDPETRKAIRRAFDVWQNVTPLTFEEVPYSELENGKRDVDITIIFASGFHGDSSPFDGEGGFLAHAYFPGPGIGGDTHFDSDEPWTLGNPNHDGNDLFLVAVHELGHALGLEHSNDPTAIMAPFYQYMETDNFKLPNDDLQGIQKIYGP
MMP-10 (Biomol SE-329), sequence (P09238 99-265 limits assumed): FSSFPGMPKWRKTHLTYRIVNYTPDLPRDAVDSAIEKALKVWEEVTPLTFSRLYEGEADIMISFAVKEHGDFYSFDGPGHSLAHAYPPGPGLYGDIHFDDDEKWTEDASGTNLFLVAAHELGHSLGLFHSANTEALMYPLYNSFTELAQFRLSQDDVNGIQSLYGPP
TACE (R&D Systems), sequence (P78536 215-671 limits assumed): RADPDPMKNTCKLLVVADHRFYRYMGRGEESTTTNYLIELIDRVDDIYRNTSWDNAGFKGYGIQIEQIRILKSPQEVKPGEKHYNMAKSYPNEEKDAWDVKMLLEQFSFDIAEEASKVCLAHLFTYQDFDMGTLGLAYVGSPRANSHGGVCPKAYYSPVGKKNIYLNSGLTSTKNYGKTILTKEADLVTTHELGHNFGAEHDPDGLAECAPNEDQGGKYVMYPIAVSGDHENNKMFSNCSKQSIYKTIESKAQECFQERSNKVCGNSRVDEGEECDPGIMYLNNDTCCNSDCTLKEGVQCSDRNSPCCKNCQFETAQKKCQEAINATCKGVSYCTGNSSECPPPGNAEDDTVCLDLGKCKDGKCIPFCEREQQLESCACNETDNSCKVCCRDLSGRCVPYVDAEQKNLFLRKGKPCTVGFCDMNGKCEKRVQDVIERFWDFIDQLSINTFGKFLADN
MMP-15 (Calbiochem #475938), sequence (P51511 132-304 limits assumed): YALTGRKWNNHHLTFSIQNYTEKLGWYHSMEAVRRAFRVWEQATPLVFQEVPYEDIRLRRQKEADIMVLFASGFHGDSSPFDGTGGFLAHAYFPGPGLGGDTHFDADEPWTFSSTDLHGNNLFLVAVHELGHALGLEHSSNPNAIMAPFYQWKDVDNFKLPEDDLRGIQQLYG
MMP-12 (Biomol SE-138), sequence (P39900 106-263 limits assumed): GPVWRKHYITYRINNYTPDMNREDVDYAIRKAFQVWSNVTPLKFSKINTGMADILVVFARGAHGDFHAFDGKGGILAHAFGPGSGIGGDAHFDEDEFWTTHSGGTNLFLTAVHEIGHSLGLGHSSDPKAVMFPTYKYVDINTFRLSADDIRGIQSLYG
MMP-3 (R&D Systems #513-MP), sequence (P08254 18-477 limits assumed): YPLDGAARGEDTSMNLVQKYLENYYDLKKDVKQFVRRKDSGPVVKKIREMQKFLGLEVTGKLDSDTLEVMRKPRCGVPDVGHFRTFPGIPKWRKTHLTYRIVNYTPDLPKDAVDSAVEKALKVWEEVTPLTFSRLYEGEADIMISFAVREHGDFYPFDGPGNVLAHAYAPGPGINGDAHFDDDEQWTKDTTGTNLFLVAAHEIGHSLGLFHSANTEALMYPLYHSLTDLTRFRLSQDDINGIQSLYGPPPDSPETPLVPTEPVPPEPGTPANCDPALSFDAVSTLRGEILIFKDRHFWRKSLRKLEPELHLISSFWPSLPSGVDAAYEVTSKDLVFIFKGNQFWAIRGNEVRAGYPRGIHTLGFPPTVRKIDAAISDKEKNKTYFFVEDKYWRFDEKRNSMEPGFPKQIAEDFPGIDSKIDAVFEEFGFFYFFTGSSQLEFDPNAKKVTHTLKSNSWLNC
MMP-8 (Biomol SE-255), sequence (P22894 100-262 limits assumed): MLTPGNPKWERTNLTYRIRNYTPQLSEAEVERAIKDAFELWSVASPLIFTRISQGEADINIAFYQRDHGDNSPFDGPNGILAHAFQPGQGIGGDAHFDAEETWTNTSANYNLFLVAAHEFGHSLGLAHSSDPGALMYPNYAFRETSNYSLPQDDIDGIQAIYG

B1: 539A-M0237-D02 hIgG1 (antibody, V domains shown)
VH: EVQLLESGGGLVQPGGSLRLSCAASGFTFSQYPMWWVRQAPGKGLEWVSYIVPSGGRTYYADSVKGRFTISRDNSKNTLYLQMNSLRAEDTAVYYCAKDRAYGDYVGWNGFDYWGQGTLVTVSS
VL: DIQMTQSPATLSLSPGERATLSCRASQSISSFLAWYQQKPGQAPRLLIYDASYRATGIPARFSGSGSGTDFTLTISSLEPEDYAVYYCQQRGNWPITFGQGTRLEIK
notes: Tested as human IgG1 (parental); also called M237-D02; DL8
binding result (h-MMP-9/h-TIMP-1 complex [1]): no binding | Ki [2]: 1.3 nM | Ki [3]: 0.92 nM | Ki [4]: 17 nM | koff [5]: ~0.0004 s⁻¹ | kon [5]: ~70000 M⁻¹ s⁻¹

B2: M0279-B02 (Fab, V domains shown)
VH: B1 VH
VL: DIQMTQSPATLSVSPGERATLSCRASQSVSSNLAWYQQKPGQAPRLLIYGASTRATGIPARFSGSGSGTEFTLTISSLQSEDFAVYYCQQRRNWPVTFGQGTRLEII
notes: sFab; variable domains only; also called M279-B02
Ki [6]: > 1000 nM | Ki [7]: 64 nM | Ki [8]: 6.5 nM | IC50 (enzyme inhibition) [9]: > 1000 nM | IC50 (enzyme inhibition) (MMP-1 (Biomol SE-180)): > 1000 nM | IC50 (enzyme inhibition) [10]: > 1000 nM | IC50 (enzyme inhibition) (MMP-7 (Biomol SE-181)): > 1000 nM | IC50 (enzyme inhibition) (TACE (R&D Systems)): > 1000 nM | IC50 (enzyme inhibition) (MMP-14 (Biomol SE-259)): > 1000 nM | IC50 (enzyme inhibition) (MMP-10 (Biomol SE-329)): > 1000 nM | IC50 (enzyme inhibition) (MMP-13 (Biomol SE-246)): > 1000 nM | IC50 (enzyme inhibition) [11]: > 1000 nM | IC50 (enzyme inhibition) [12]: > 1000 nM | IC50 (enzyme inhibition) (MMP-8 (Biomol SE-255)): > 1000 nM | IC50 (enzyme inhibition) (MMP-12 (Biomol SE-138)): > 1000 nM | Ki [13]: 2.6 nM

B3: M0078-G07 (Fab, V domains shown)
VH: EVQLLESGGGLVQPGGSLRLSCAASGFTFSSYTMEWVRQAPGKGLEWVSWISPSGGYTFYADSVKGRFTISRDNSKNTLYLQMNSLRAEDTALYYCARGYSYGSIDLWGRGTLVTVSS
VL: DIQMTQSPGTLSVSPGERATLSCRASQSVSSDLAWYQHKPGQAPRLLIYGVSTKATGVPARFSGSGSGTEFTLTISSLQSEDLAVYYCQQYHNWPPLTFGGGTKVEIK
notes: variable domains only; also called Fab M0078-G07
Kd (MMP-9 (PMA-activated)): 3.1 nM

B4: M0076-D03 (Fab, V domains shown)
VH: EVQLLESGGGLVQPGGSLRLSCAASGFTFSLYRMNWVRQAPGKGLEWVSYIGSSGGATAYADSVKGRFTISRDNSKNTLYLQMNSLRAEDTAVYYCARGAWYLDSWGQGTLVTVSS
VL: DIQMTQSPSSLSASVGDRVTITCRASQGIRNDLDWYQQKPGTAPKRLIYSASNLQSGVPSRFSGSGSGTEFTLTISNLQPEDLATYFCLQHNSFPLTFGQGTKVEIK
notes: variable domains only
Kd (MMP-9 (PMA-activated)): 5.9 nM

B5: 539A-M0166-F10 (antibody, V domains shown)
VH: EVQLLESGGGLVQPGGSLRLSCAASGFTFSPYLMNWVRQAPGKGLEWVSSIYSSGGGTGYADSVKGRFTISRDNSKNTLYLQMNSLRAEDTAVYYCARIYHSSSGPFYGMDVWGQGTTVTVSS
VL: QSELTQPPSASAAPGQRVTISCSGSSSNIGSNTVTWYQKLPGTAPKLLIYNNYERPSGVPARFSGSKSGTSASLAISGLQSEDEADYYCATWDDSLIANYVFGSGTKVTVLG
notes: also called DL15
binding result (h-MMP-9/h-TIMP-1 complex [14]): no binding | binding result [15]: no binding | binding result [16]: no binding
